Assay results as given in US20140219913A1 (AbbVie / Abbott, published 2014).

B1: RAB031 (other)
VH: QVQLQESGPGLVKPSETLSLTCTVSGFSLIGYDLNWIRQPPGKGLEWIGIIWGDGTTDYNSAVKSRVTISKDTSKNQFSLKLSSVTAADTAVYYCARGGYWYATSYYFDYWGQGTLVTVSS
VL: LPAQVAFTPYAPEPGSTCRLREYYDQTAQMCCSKCSPGQHAKVFCTKTSDTVCDSCEDSTYTQLWNWVPECLSCGSRCSSDQVETQACTREQNRICTCRPGWYCALSKQEGCRLCAPLRKCRPGFGVARPGTETSDVVCKPCAPGTFSNTTSSTDICRPHQICNVVAIPGNASMDAVCTSTSPTRSMAPGAVHLPQPVSTRSQHTQPTPEPSTAPSTSFLLPMGPSPPAEGSTGDTVAAPDIQMTQSPSSLSASVGDRVTITCRASQSISNNLNWYQQKPGKAPKLLIYYTSRFHSGVPSRFSGSGSGTDFTFTISSLQPEDIATYYCQQEHTLPYTFGQGTKLEIKR
B2: RAB027 (other)
VH: LPAQVAFTPYAPEPGSTCRLREYYDQTAQMCCSKCSPGQHAKVFCTKTSDTVCDSCEDSTYTQLWNWVPECLSCGSRCSSDQVETQACTREQNRICTCRPGWYCALSKQEGCRLCAPLRKCRPGFGVARPGTETSDVVCKPCAPGTFSNTTSSTDICRPHQICNVVAIPGNASMDAVCTSTSPTRSMAPGAVHLPQPVSTRSQHTQPTPEPSTAPSTSFLLPMGPSPPAEGSTGDASTKGPEVQLVQSGAEVKKPGASVKVSCKASGYTFTKYWLGWVRQAPGQGLEWMGDIYPGYDYTHYNEKFKDRVTLTTDTSTSTAYMELRSLRSDDTAVYYCARSDGSSTYWGQGTLVTVSS
VL: DVLMTQTPLSLPVTPGEPASISCTSSQNIVHSNGNTYLEWYLQKPGQSPQLLIYKVSNRFSGVPDRFSGSGSGTDFTLKISRVEAEDVGVYYCFQVSHVPYTFGGGTKVEIKR
B3: RAB014 (other)
VH: AMHVAQPAVVLASSRGIASFVCEYASPGKYTEVRVTVLRQADSQVTEVCAATYMMGNELTFLDDSICTGTSSGNQVNLTIQGLRAMDTGLYICKVELMYPPPYYEGIGNGTQIYVIDPEPCPDSDASTKGPSVFPLAPEVQLVQSGAEVKKPGASVKVSCKASGYTFTKYWLGWVRQAPGQGLEWMGDIYPGYDYTHYNEKFKDRVTLTTDTSTSTAYMELRSLRSDDTAVYYCARSDGSSTYWGQGTLVTVSS
VL: B2 VL
notes: rDVD-Ig with LEA29Y on the heavy chain only and a long linker; also called RAB014H; RAB014L
B4: RAB020 (other)
VH: AMHVAQPAVVLASSRGIASFVCEYASPGKYTEVRVTVLRQADSQVTEVCAATYMMGNELTFLDDSICTGTSSGNQVNLTIQGLRAMDTGLYICKVELMYPPPYYEGIGNGTQIYVIDPEPCPDSDQEPKSSDKTHTSPEVQLVQSGAEVKKPGASVKVSCKASGYTFTKYWLGWVRQAPGQGLEWMGDIYPGYDYTHYNEKFKDRVTLTTDTSTSTAYMELRSLRSDDTAVYYCARSDGSSTYWGQGTLVTVSS
VL: B2 VL
notes: rDVD-Ig with LEA29Y on the heavy chain only and a QH linker; also called RAB020H; RAB020L
B5: RAB028 (other)
VH: EVQLVQSGAEVKKPGASVKVSCKASGYTFTKYWLGWVRQAPGQGLEWMGDIYPGYDYTHYNEKFKDRVTLTTDTSTSTAYMELRSLRSDDTAVYYCARSDGSSTYWGQGTLVTVSS
VL: LPAQVAFTPYAPEPGSTCRLREYYDQTAQMCCSKCSPGQHAKVFCTKTSDTVCDSCEDSTYTQLWNWVPECLSCGSRCSSDQVETQACTREQNRICTCRPGWYCALSKQEGCRLCAPLRKCRPGFGVARPGTETSDVVCKPCAPGTFSNTTSSTDICRPHQICNVVAIPGNASMDAVCTSTSPTRSMAPGAVHLPQPVSTRSQHTQPTPEPSTAPSTSFLLPMGPSPPAEGSTGDTVAAPDVLMTQTPLSLPVTPGEPASISCTSSQNIVHSNGNTYLEWYLQKPGQSPQLLIYKVSNRFSGVPDRFSGSGSGTDFTLKISRVEAEDVGVYYCFQVSHVPYTFGGGTKVEIKR
B6: RAB013 (other)
VH: B3 VH
VL: AMHVAQPAVVLASSRGIASFVCEYASPGKYTEVRVTVLRQADSQVTEVCAATYMMGNELTFLDDSICTGTSSGNQVNLTIQGLRAMDTGLYICKVELMYPPPYYEGIGNGTQIYVIDPEPCPDSDTVAAPSVFIFPPDVLMTQTPLSLPVTPGEPASISCTSSQNIVHSNGNTYLEWYLQKPGQSPQLLIYKVSNRFSGVPDRFSGSGSGTDFTLKISRVEAEDVGVYYCFQVSHVPYTFGGGTKVEIKR
notes: rDVD-Ig with LEA29Y on both chains and long linkers; also called RAB013H; RAB013L
B7: RAB030 (other)
VH: LPAQVAFTPYAPEPGSTCRLREYYDQTAQMCCSKCSPGQHAKVFCTKTSDTVCDSCEDSTYTQLWNWVPECLSCGSRCSSDQVETQACTREQNRICTCRPGWYCALSKQEGCRLCAPLRKCRPGFGVARPGTETSDVVCKPCAPGTFSNTTSSTDICRPHQICNVVAIPGNASMDAVCTSTSPTRSMAPGAVHLPQPVSTRSQHTQPTPEPSTAPSTSFLLPMGPSPPAEGSTGDASTKGPQVQLQESGPGLVKPSETLSLTCTVSGFSLIGYDLNWIRQPPGKGLEWIGIIWGDGTTDYNSAVKSRVTISKDTSKNQFSLKLSSVTAADTAVYYCARGGYWYATSYYFDYWGQGTLVTVSS
VL: DIQMTQSPSSLSASVGDRVTITCRASQSISNNLNWYQQKPGKAPKLLIYYTSRFHSGVPSRFSGSGSGTDFTFTISSLQPEDIATYYCQQEHTLPYTFGQGTKLEIKR

What was measured:
TNF-alpha = experiment: cell-based or functional assay
NGF = experiment: cell-based or functional assay
[1] = target: T1, Recombinant human B7-1/CD80 Fc chimera (Cat. 140-B1-100, R&D Systems) (human, UniProt P33681 35-242); experiment: direct bind ELISA, coated recombinant human B7-1/CD80 Fc chimera
T1 construct: extracellular domain; also called B7-1 antigen; Fc part of the bought chimera not given; not described
T1 sequence (looked up): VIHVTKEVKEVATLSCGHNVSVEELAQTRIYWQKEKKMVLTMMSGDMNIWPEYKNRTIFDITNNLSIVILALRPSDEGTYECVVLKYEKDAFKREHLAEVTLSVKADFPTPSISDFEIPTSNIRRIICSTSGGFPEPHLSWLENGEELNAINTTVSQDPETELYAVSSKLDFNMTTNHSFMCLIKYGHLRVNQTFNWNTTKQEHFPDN
Procedure: Enzyme Linked Immunosorbent Assays (ELISA) to screen for antibodies that bind a desired target antigen were performed as follows. High bind ELISA plates (Corning Costar #3369, Acton, Mass.) were coated with 100 μL/well of 10 μg/ml of desired target antigen (R&D Systems, Minneapolis, Minn.) or desired target antigen extra-cellular domain/FC fusion protein (R&D Systems, Minneapolis, Minn.) or monoclonal mouse anti-polyHistidine antibody (R&D Systems #MAB050, Minneapolis, Minn.) in phosphate buffered saline (10×PBS, Abbott Bioresearch Center, Media Prep#MPS-073, Worcester, Mass.) overnight at 4° C. Plates were washed four times with PBS containing 0.02% Tween 20. Plates were blocked by the addition of 300 μL/well blocking solution (non-fat dry milk powder, various retail suppliers, diluted to 2% in PBS) for ½ hour at room temperature. Plates were washed four times after blocking with PBS containing 0.02% Tween 20.
One hundred microliters of 10 ng/mL goat anti-human IgG-FC specific HRP conjugated antibody (Southern Biotech #2040-05, Birmingham, Ala.) was added to each well of the desired target antigen plate or anti-polyHistidine antibody/Histidine tagged desired target antigen plate. Alternatively, one hundred microliters of 10 ng/mL goat anti-human IgG-kappa light chain specific HRP conjugated antibody (Southern Biotech #2060-05 Birmingham, Ala.) was added to each well of the desired target antigen/FC fusion plate and incubated for 1 hour at room temperature. Plates were washed 4 times with PBS containing 0.02% Tween 20.
One hundred microliters of enhanced TMB solution (Neogen Corp. #308177, K Blue, Lexington, Ky.) was added to each well and incubated for 10 minutes at room temperature. The reaction was stopped by the addition of 50 μL 1N sulphuric acid. Plates were read spectrophotometrically at a wavelength of 450 nm

[2] = target: T2, Recombinant human B7-2/CD86 Fc chimera (Cat. 141-B2-100, R&D Systems) (human, UniProt P42081 26-245); experiment: competitive ELISA; coated CD28 Fc, biotinylated B7-2/CD86 Fc, construct titrated
T2 construct: Fc part of the bought chimera not given; not described
T2 sequence (looked up): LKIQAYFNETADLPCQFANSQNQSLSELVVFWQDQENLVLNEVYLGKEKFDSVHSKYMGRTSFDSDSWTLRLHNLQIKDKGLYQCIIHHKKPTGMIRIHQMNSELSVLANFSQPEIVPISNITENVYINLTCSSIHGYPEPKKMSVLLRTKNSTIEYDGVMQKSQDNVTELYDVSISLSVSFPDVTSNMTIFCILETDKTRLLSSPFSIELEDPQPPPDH
Procedure: (§1) ELISA plates (Nunc, MaxiSorp, Rochester, N.Y.) were incubated overnight at 4° C. with Recombinant Human CD28 Fc Chimera (Cat. #342-CD-200). Plates were washed three times in washing buffer (PBS containing 0.05% Tween 20), and blocked for 1 hour at 25° C. in blocking buffer (PBS containing 1% BSA). Wells were washed three times, and serial dilutions of each antibody or DVD-Ig in PBS containing 0.1% BSA were added to the wells and incubated at 25° C. for 1 hour. The wells were washed three times, and biotinylated antigen (2 nM) was added to the plates and incubated for 1 hour at 25° C. The wells were washed three times and incubated for 1 hour at 25° C. with streptavidin-HRP (KPL #474-3000, Gaithersburg, Md.). The wells were washed three times, and 100 μl of ULTRA-TMB ELISA (Pierce, Rockford, Ill.) was added per well. Following color development the reaction was stopped with 1N HCL and absorbance at 450 nm was measured. Recombinant human B7-1/CD80 Fc chimera (Cat. 140-B1-100, R&D Systems, Minneapolis, Minn.) was used.
Recombinant human B7-2/CD86 Fc chimera (Cat. 141-B2-100, R&D Systems, Minneapolis, Minn.) was used.

[3] = target: T1, Recombinant human B7-1/CD80 Fc chimera …; experiment: competitive ELISA; coated CD28 Fc, biotinylated B7-1/CD80 Fc (2 nM), construct titrated
Procedure: as §1

| Binder | N-terminal L929 Assay (EC50, pM) (TNF-alpha) [pM] | C-terminal Bioassay Mean (IC50, nM): Cell Impedance assay (NGF) [nM] | C-terminal Bioassay Mean (IC50, nM): pERK assay (NGF) [nM] | EC50 [1] [nM] | EC50 [2] [nM] | EC50 [3] [nM] |
| --- | --- | --- | --- | --- | --- | --- |
| B1 | 120 | 1.1 | 0.5 |  |  |  |
| B2 | 30 |  |  |  |  |  |
| B3 |  |  |  | 1.5 | 1.1 | 1.7 |
| B4 |  |  |  | 1.2 | 1 | 1.7 |
| B5 | 90 |  |  |  |  |  |
| B6 |  |  |  | 21.2 | 0.5 | 2 |
| B7 | 50 | 1.6 | 0.6 |  |  |  |
